Protein production data for 16 sequences are collected here from a protein production outcome set (Wang et al. 2014).

The series can be described thus: label from the status in PepcDB records.
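Further: failed if final PepcDB status was selected cloned or expressed and not failed if soluble or beyond.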

With “MDKTKTFCKASLVSIALVLLLVSSAALAATENDTGNATIKDDYVSSTAMANTEGSSLPKVTETQITTSGFHPAIYGNRIVWTDYHDEECNIYMYDLSTKKETQITTSGDVSGSDIYGNRIVWSNYVYPNEVYMYDLSTSQKSTISGYNSYVDSLSIYGDKVVWGDSLDDYVSIFMHDLSTKEETLLTYDAYNPAIYGNRIVWEDRFDDNIYMYDISTKKQTRITNGGAADDPAIYGNRIVYASTHDGNTDIYMYDLSTKKQTQITSSPDAQTHPAIYGNRIVWEDDGGEDDGYTNHGIYMYDISTNQKMKISTKGSAYSPTIYGNNIVWEYYNNENGKLRNLHGHYFRTKTEPSYCCILCIPNFRKNTIKSYFY”, the protein production result is listed as “failed”. The same measure for “MDKTNLGELINQGKSLLDESVEGFNVGEYHKGAKDGLTVEINKAEEVFNKEDATEEEINLAKESLEGAIARFNSLLIEESTGDFNGNGKIDIGDLAMVSKNIGSTTNTSLDLNKDGSIDEYEISFINHRILNLEHHHHHH”: “not failed”; for “MDKVYLTWWQVDRAIFALAEKLREYKPDVIIGVARGGLIPAVRLSHILGDIPLKVIDVKFYKGIDERGEKPVITIPIHGDLKDKRVVIVDDVSDTGKTLEVVIEEVKKLGAKEIKIACLAMKPWTSVVPDYYVFRTEKWIVFPWEEFPVIEKE”: “not failed”; for “MDLDYGGVPLWINRFLGEPSVLTLKDRIDPGWYRAVNTQSCPLECDCPIQWPTAIYCDHRGLNQLPSGLPFRLQYLFLQGNNITSLGSRAFDNTTYLRWLILDHNELLSEQLDNVLFSSLTRLVNLFINHNNLTKVPAGLPSGLKQLRLAYNHIEKISEGDFQNLDSLTLILLQGNRLKTIEEGDFKGLGALNLLDLSHNFLDTFPKHLPPSVQQLYLSNNSLTGLSENSLHAFSGLRYLRLGHNKLRNERLDPGAFNLTSLVELDLSYNRLTEIPSVPITLQYLYLEVNHIQEFNVSSFCRTVGPTSYSRMKILRLDGNKLEYHKLPPDWVFCLRVLHNIYI”: “failed”. The same measure for “MDLELDEYYNKTLATENNTAATRNSDFPVWDDYKSSVDDLQYFLIGLYTFVSLLGFMGNLLILMALMKKRNQKTTVNFLIGNLAFSDILVVLFCSPFTLTSVLLDQWMFGKVMCHIMPFLQCVSVLVSTLILISIAIVRYHMIKHPISNNLTANHGYFLIATVWTLGFAICSPLPVFHSLVELQETFGSALLSSRYLCVESWPSDSYRIAFTISLLLVQYILPLVCLTVSHTSVCRSISCGLSNKENRLEENEMINLTLHPSKKSGPQVKLSGSHKWSYSFIKKHRRRYSKKTACVLPAPERPSQENHSRILPENFGSVRSQLSSSSKFIPGVPTCFEIKPEENSDVHELRVKRSVTRIKKRSRSVFYRLTILILVFAVSWMPLHLFHVVTDFNDNLISNRHFKLVYCICHLLGMMSCCLNPILYGFLNNGIKADLVSLIHCLHM”: “failed”; for “MDLETLRARREAVLSLCARHGAVRVRVFGSVARGEAREDSDLDLLVAFEEGRTLLDHARLKLALEGLLGVRVDIVSERGLAPRLREQVLREAIPL”: “not failed”; for “MDLFPEEIYVFTPDGRIIELPMGATAIDFAYAVHTDVGNSCVGVKVDRKPYPMSRPIDSGQTIEVITSASARPNATWLEHHHHHH”: “failed”.

For “MDLGILSQLLILLFVSMLLGVLFSKFKIPDVVAYILTGVLVGNGFLKIVSPSVPISDIESVSLFFIILAIGVEANTEYIYGNVRRSIILTISSFIAPSMLGFLYLQAVAHLPIIPAFVLSMSVGVPSISIISVLLMRYDLLKLNAGRLILSSVVLTDTSAFIILSSTYESVTKVLISFGFVVLFLFAIWLFDILIRRRAGRIIEWISRRETDNNMEYILFSLVIIAGLLVSTLFEFIGITYVLGAFYAGILIHEASIGQKYHKIILNTIKRINDSFFIPLFFSIAGISMILPKISIFMIFLPALLILMGASGGLTYLVSHRLIRSLEPIKVVSILGGRGAVGVIIATIAFQSGIIDVAVYSLALIGTVIFSLVMTPLVSIGNAPSQNDDVRYS”, the protein production entry is “failed”. As to “MDLKGGESMVDWKLMQEIIEAPGVSGYEHLGIRDIVVDVLKEVADEVKVDKLGNVIAHFKGSSPRIMVAAHMDKIGVMVNHIDKDGYLHIVPIGGVLPETLVAQRIRFFTEKGERYGVVGVLPPHLRRGQEDKGSKIDWDQIVVDVGASSKEEAEEMGFRVGTVGEFAPNFTRLNEHRFATPYLDDRICLYAMIEAARQLGDHEADIYIVGSVQEEVGLRGARVASYAINPEVGIAMDVTFAKQPHDKGKIVPELGKGPVMDVGPNINPKLRAFADEVAKKYEIPLQVEPSPRPTGTDANVMQINREGVATAVLSIPIRYMHSQVELADARDVDNTIKLAKALLEELKPMDFTP”, the protein production result is “not failed”. The same measure for “MDLLERLGLGGRRVLILHHDDLGLTHAQNGAYQALGLPTGSVMVPGAWASGVKGEDLGVHLVLTSEWPAPRMRPLTEGESLRDEAGYFPESLEALWRKARAEEVERELKAQIQAAAKLFSPTHLDAHQGAVLRPDLAEVYLRLAEAYRLVPLVPESLEGLGVPPPFLPELERLLYETPFPQVRFLDPYGLPPEERLGFYLDLAHLPPGLYYLVHHSALPTPEGRALPDWPTREADYFALSHPEVRRVLAEFHPLTWRAVREALF”: “not failed”; for “MDLLKNIFKGDKVIWIIFLCLCLISIIEVFSAASTLTYKSGDHWGPITQHSIILMVGAVVVVLMHNIPYKWFQVFPVFLYPISVVLLAFVTLMGVITGDRVNGAARWMSFMGLQFQPSELAKMAVIIAVSFILSKKQDDEGANPKAFKYIMILTGLVCMLIAPENLSTAMLLFGVVVLMMFIGRVAFKKLAMLLGGLALVGCLGAVFLLAIPKDTDIPFLHRFDTWKSRITNFTEKEEVPAAKFDIDKDAQIAHARIAIATSNVIGKAPGNSIQRDFLSQAFSDFIFAIIIEELGLVGGAFVVILYIWLLVRTGRIAQKCERTFPAFLVMGIALMLVSQAILNMMVAVGLFPVTGQPLPLISKGGTSTLINCAYIGMILSVSRYTAYLEEKKENPAPLLTQSEGNETIASEAQTAAEPTAEVLNSDAKFEE”: “failed”. For “MDLPVMPPVKPMLAKSVAKIPPGMHYEAKWDGFRAIVYRDGDEVELGSRTGKPLTRYFPELVVAVRERLPERCVVDGEIVIARDGHLDFDALTERIHPADSRVRTLAERTPASLVAFDLLALDDASLLDVGLADRRALLVRALSGVTPPVHVAPATDDIEVARRWFEQYEGAGLDGVVAKPLDLRYRQDERAMYKIKHERTADVVVAGYRFHKSGPVVGSLLLGLYDDRGLLQHVGVSAAFTMKRRAELVAELEPLRMDDARGHPWAAWAEEAAHESARLPGAPSRWSGKKDLSWVPLRPERVVEVAYDHMENGARFRHTARFRRWRPDRTPESCTYAQLEEPVRYDLAEILGGPLEHHHHHH” the value was “failed”; for “MDLSLLKALSEADAIASSEQEVRQILLEEAARLQKEVRFDGLGSVLIRLNESTGPKVMICAHMDEVGFMVRSISREGAIDVLPVGNVRMAARQLQPVRITTREECKIPGLLDGDRQGNDVSAMRVDIGARTYDEVMQAGIRPGDRVTFDTTFQVLPHQRVMGKAFDDRLSCYLLVTLLRELHDAELPAEVWLVASSSEEVGLRGGQTATRAVSPDVAIVLDTACWAKNFDYGAANHRQIGNGPMLVLSDKSLIAPPKLTAWIETVAAEIGVPLQADMFSNGGTDGGAVHLTGTGVPTLVMGPATRHGHCAASIADCRDILQMEQLLSALIQRLTRETVVQLTDFR”, “not failed”. As to “MDLSLSTRTVGDRTVVEVGGEIDVYTAPKLREQLVELVNDGNFHLVVDMEGVDFLDSTGLGVLVGGLKRVRAHEGSLRLVCNQERILKIFRITGLTKVFPIHTSVEEAVAATD”, the protein production entry is listed as “failed”. For “MDLVKIDETLDDLQIKDIHIIQKKEGFRFGVDAVLLANYAKVKSNQTVIDLCSGTGIIPFIIQGKKSPRHITGIEIQEDMVQMANRTVLYNKFQEKIKFINEDIKNLAELKKLERVDVVTVNPPYKLRNSGIVNEFDKNAIARHEICCTLEDVIKAARTLLKDNGRLFMVHRPERLADILCLMREYKIEPKSIKMVYPSVNKAPNIVLIEGQRDGGAFLKWEKSLYIHKENGEYTEELNEIYGR”, the protein production entry is “failed”. For “MDLVLDLLATVSRWSRSNLSEISLALVGCLLVLFGTDVKAWAEQRLGGLAGALRVPFMALMVMIGSGAALIYATPWVVKGLSQFNNYALAPVLLVVLVLIGVVADRRG” the value was “failed”.
